Measured values taken from the supplement of paper PMC10126150.
± gives the standard deviation of the averaged measurements.

Test system: ATP
Assay: switch fluorescence ratio, 500 uM ATP over buffer (Cy3 cluster intensity, sum of 5 cycles each) (fold (ratio)); higher = stronger signal-on switching upon ATP binding; sequences stand for … in TCGTCGGCAGCGTCAGATGTGTATAAGAGACAGTTTTTTTTTTTTTTTTTTTTTTTTT…TC
Conditions: aptamer strand: ATP DNA aptamer (quencher-CACCTGGGGGAGTATTGCGGAGGAAGG + anchor), 100 nM annealed; ATP concentration: 500 uM
Summary of the method: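 Clusters with intensities outside 100-1000 RFU were excluded. The remaining Cy3-labelled switching-strand clusters on a modified Illumina MiSeq flow-cell had been annealed to 100 nM quencher-labelled ATP aptamer and imaged in selection buffer, then after 15 min with 500 uM ATP at 22 °C, for five cycles separated by NaOH stripping and re-annealing. The fluorescence ratio, averaged per switch-domain sequence, is each cluster's summed target-cycle Cy3 intensity over its summed buffer-cycle Cy3 intensity.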
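Further: ATP exposure 15 min at 22 °C before imaging.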

Row | Sequence | switch fluorescence ratio
1 | ATATGGGCTT | 0.986 ± 0.014
2 | ATATGGGGTG | 1.05 ± 0.046
3 | ATATGGGTTA | 0.9912 ± 0.001
4 | ATATGGTGAT | 1 ± 0.057
5 | ATATGTGTGA | 0.968 ± 0.029
6 | ATATGTGTTT | 1.05 ± 0.018
7 | ATATGTTTG | 0.973 ± 0.047
8 | ATATTAATTT | 0.989 ± 0.023
9 | ATATTAGACG | 1.04 ± 0.036
10 | ATATTATCAG | 0.986 ± 0.014
11 | ATATTCATCT | 0.9861 ± 0.0056
12 | ATATTCGGCG | 0.975 ± 0.022
13 | ATATTCGTG | 0.985 ± 0.013
14 | ATATTCTACT | 1.025 ± 3.1e-05
15 | ATATTCTAGA | 0.989 ± 0.029
16 | ATATTCTGGG | 0.969 ± 0.015
17 | ATATTGGCAT | 1.02 ± 0.026
18 | ATATTGGCGC | 1.01 ± 0.019
19 | ATATTGGGTA | 0.997 ± 0.022
20 | ATATTGTGAC | 1.032 ± 0.004
21 | ATATTTGATA | 1.01 ± 0.039
22 | ATATTTGGGC | 0.975 ± 0.034
23 | ATATTTGTGG | 0.9843 ± 0.0088
24 | ATATTTTAGG | 0.996 ± 0.031
25 | ATATTTTGGC | 1.04 ± 0.034
26 | ATATTTTTTT | 1 ± 0.03

Row | Sequence | switch fluorescence ratio
27 | ATCAAAACTT | 1.03 ± 0.013
28 | ATCAAAATAA | 1.06 ± 0.059
29 | ATCAAAATTG | 1.01 ± 0.027
30 | ATCAAAGCGC | 1.03 ± 0.023
31 | ATCAAGCAGT | 1.41 ± 0.47
32 | ATCAAGCCAA | 1.005 ± 0.0018
33 | ATCAAGGGGT | 1.01 ± 0.019
34 | ATCAAGTCTG | 0.9898 ± 0.0028
35 | ATCAATTGGT | 1.013 ± 0.0052
36 | ATCAATTTAA | 0.976 ± 0.039
37 | ATCAATTTCT | 0.974 ± 0.014
38 | ATCACGGGAA | 1.055 ± 0.0074
39 | ATCACGGTGC | 1.1 ± 0.061
40 | ATCAGAACAA | 1.01 ± 0.0069
41 | ATCAGAGGGG | 1.03 ± 0.019
42 | ATCAGATAGC | 0.977 ± 0.018
43 | ATCAGCAACG | 1.01 ± 0.026
44 | ATCAGGAAAT | 1.01 ± 0.017
45 | ATCAGGCGTA | 0.975 ± 0.038
46 | ATCAGGGAGT | 1 ± 0.011
47 | ATCAGTGAGA | 1.03 ± 0.032
48 | ATCAGTGGGG | 0.991 ± 0.042
49 | ATCAGTGGTC | 0.936 ± 0.021
50 | ATCAGTTTTC | 0.985 ± 0.0013
51 | ATCATAGCCG | 1.07 ± 0.14
52 | ATCATGCATT | 0.989 ± 0.025

Row | Sequence | switch fluorescence ratio
53 | ATCATGGTTG | 1.002 ± 0.0063
54 | ATCATGTACA | 0.996 ± 0.024
55 | ATCATTAACT | 1.02 ± 0.013
56 | ATCATTCTTC | 0.977 ± 0.034
57 | ATCATTGAA | 0.9864 ± 0.0087
58 | ATCATTTAAT | 1.009 ± 0.0054
59 | ATCATTTTTT | 0.9877 ± 0.0061
60 | ATCCCTTGAG | 0.992 ± 0.032
61 | ATCCGAGGGG | 1.03 ± 0.05
62 | ATCCGCGCGT | 1 ± 0.014
63 | ATCCGCTAGT | 2.16 ± 0.19
64 | ATCCGGACCC | 1.08 ± 0.1
65 | ATCCGGGGAA | 1.02 ± 0.0032
66 | ATCCGGTTAC | 5.17 ± 0.68
67 | ATCCGGTTAT | 1.03 ± 0.016
68 | ATCCGTGATA | 1.77 ± 0.021
69 | ATCCTAAATT | 1.02 ± 0.0024
70 | ATCCTAATGG | 0.983 ± 0.012
71 | ATCCTAGTTT | 1.016 ± 0.00087
72 | ATCCTATTT | 1.01 ± 0.028
73 | ATCCTATTTG | 1.0056 ± 0.0008
74 | ATCCTCGGCC | 1.52 ± 0.039
75 | ATCCTCGTAA | 2.44 ± 0.32
76 | ATCCTCTGCC | 3.16 ± 0.72
77 | ATCCTGCTTT | 1.01 ± 0.069
78 | ATCGAAACCC | 1.05 ± 0.046

Row | Sequence | switch fluorescence ratio
79 | ATCGACATAG | 0.9985 ± 0.006
80 | ATCGACGGG | 1.008 ± 0.0058
81 | ATCGAGAGGG | 1.01 ± 0.04
82 | ATCGAGGCAC | 1.056 ± 0.0061
83 | ATCGATACTT | 1.067 ± 0.0098
84 | ATCGATAGTG | 1 ± 0.03
85 | ATCGATTTTT | 1 ± 0.032
86 | ATCGCGGATT | 0.994 ± 0.023
87 | ATCGCGGGCC | 1.03 ± 0.036
88 | ATCGGAACCT | 2.15 ± 0.1
89 | ATCGGACGCT | 1.06 ± 0.023
90 | ATCGGAGGTG | 1.02 ± 0.062
91 | ATCGGCAGTT | 1 ± 0.015
92 | ATCGGCATGC | 1.19 ± 0.019
93 | ATCGGGAGAC | 1.27 ± 0.21
94 | ATCGGGATAG | 1.04 ± 0.044
95 | ATCGGGGCAC | 1.1 ± 0.11
96 | ATCGGGGCGG | 0.993 ± 0.031
97 | ATCGGGTTAG | 0.998 ± 0.016
98 | ATCGGTAATT | 0.997 ± 0.029
99 | ATCGGTCATG | 0.993 ± 0.013
100 | ATCGGTGAGG | 0.971 ± 0.03
101 | ATCGGTGTGC | 0.981 ± 0.069
102 | ATCGTAGGTC | 0.982 ± 0.052
103 | ATCGTAGGTG | 1.04 ± 0.12
104 | ATCGTATACC | 1.01 ± 0.022

Row | Sequence | switch fluorescence ratio
105 | ATCGTCATAT | 1 ± 0.036
106 | ATCGTGAGGG | 1 ± 0.053
107 | ATCGTGTGTC | 0.987 ± 0.071
108 | ATCTAGGGTC | 1.01 ± 0.031
109 | ATCTAGGTAT | 1 ± 0.029
110 | ATCTAGTACC | 0.999 ± 0.046
111 | ATCTATGATA | 0.954 ± 0.011
112 | ATCTATTATT | 1.012 ± 0.006
113 | ATCTCGCAGG | 1.08 ± 0.031
114 | ATCTCGTTA | 1.04 ± 0.053
115 | ATCTGAGTTA | 1.03 ± 0.058
116 | ATCTGATCGA | 0.96 ± 0.037
117 | ATCTGATTGA | 0.97124 ± 0.00072
118 | ATCTGGAGTT | 1.01 ± 0.018
119 | ATCTGGCGTC | 0.998 ± 0.033
120 | ATCTGGTATG | 0.957 ± 0.037
121 | ATCTGGTGCT | 1.052 ± 0.0059
122 | ATCTGTCCAG | 1 ± 0.071
123 | ATCTGTGAGG | 1.019 ± 0.0063
124 | ATCTTATCGT | 0.982 ± 0.027
125 | ATCTTCTAGT | 0.953 ± 0.041
126 | ATCTTGGACG | 1.05 ± 0.027
127 | ATCTTTACCT | 1.26 ± 0.036
128 | ATCTTTAGTA | 1 ± 0.014
129 | ATCTTTGGTA | 0.9826 ± 0.0074
130 | ATCTTTTTGT | 1.014 ± 0.005

Row | Sequence | switch fluorescence ratio
131 | ATGAAAATAC | 1.01 ± 0.03
132 | ATGAAAATTT | 1.05 ± 0.017
133 | ATGAAAGGGA | 1.02 ± 0.042
134 | ATGAAAGTGC | 1.02 ± 0.017
135 | ATGAAATTTT | 1.0061 ± 0.00088
136 | ATGAAGCAGG | 1.15 ± 0.058
137 | ATGAAGGGGG | 1.03 ± 0.042
138 | ATGAAGGGGT | 0.959 ± 0.033
139 | ATGAATAATG | 1.01 ± 0.026
140 | ATGAATTTGC | 0.979 ± 0.044
141 | ATGAATTTGT | 1.01 ± 0.032
142 | ATGACAGGAT | 1 ± 0.023
143 | ATGACCGGGG | 1.02 ± 0.023
144 | ATGACGTATT | 1.02 ± 0.052
145 | ATGACTTCGG | 0.99 ± 0.028
146 | ATGAGAATTA | 1.006 ± 0.0023
147 | ATGAGAATTT | 1.01 ± 0.049
148 | ATGAGAGGTT | 0.994 ± 0.049
149 | ATGAGCCAGT | 1.003 ± 0.004
150 | ATGAGCGGCG | 0.9917 ± 0.0012
151 | ATGAGCTATT | 1.03 ± 0.027
152 | ATGAGGAAGT | 0.987 ± 0.023
153 | ATGAGGAATG | 1.008 ± 0.0043
